Publication PMC2267071
Values joined by “and” are separate entries in the source; they are usually repeats but may differ in a detail not shown here. Equal values may be shown once.

What was measured:
[1] = molecular target: His5 (position 5, -TESHHK----); assay: NMR; details: 25 C; free peptide (no metal), 5 mM
[2] = molecular target: His4 (position 4, --TESHHK---); assay: NMR; details: 25 C; free peptide (no metal), 5 mM
[3] = molecular target: His5 (position 5, -TESHHK----); assay: potentiometry; details: 25 C; 0.1 M KNO3; free peptide (no metal)
[4] = molecular target: His4 (position 4, --TESHHK---); assay: potentiometry; details: 25 C; 0.1 M KNO3; free peptide (no metal)
[5] = molecular target: Lys6 (position 6, TESHHK-----); assay: potentiometry; details: 25 C, 0.1 M KNO3
[6] = molecular target: Glu2 (position 2, ----TESHHK-); assay: potentiometry; details: 25 C; 0.1 M KNO3; free peptide (no metal)
[7] = molecular target: His5 (position 5, -TASHHK----); assay: NMR; details: 25 C; free peptide (no metal), 5 mM
[8] = molecular target: His4 (position 4, --TASHHK---); assay: NMR; details: 25 C; free peptide (no metal), 5 mM
[9] = molecular target: His5 (position 5, -TASHHK----); assay: potentiometry; details: 25 C; 0.1 M KNO3; free peptide (no metal)
[10] = molecular target: Lys6 (position 6, TASHHK-----); assay: potentiometry; details: 25 C; 0.1 M KNO3; free peptide (no metal)
[11] = molecular target: His4 (position 4, --TASHHK---); assay: potentiometry; details: 25 C; 0.1 M KNO3; free peptide (no metal)
[12] = molecular target: His4 (position 4, --TEAHHK---); assay: NMR; details: 25 C; free peptide (no metal), 5 mM
[13] = molecular target: His5 (position 5, -TEAHHK----); assay: NMR; details: 25 C; free peptide (no metal), 5 mM
[14] = molecular target: His4 (position 4, --TEAHHK---); assay: potentiometry; details: 25 C; 0.1 M KNO3; free peptide (no metal)
[15] = molecular target: His5 (position 5, -TEAHHK----); assay: potentiometry; details: 25 C; 0.1 M KNO3; free peptide (no metal)
[16] = molecular target: Lys6 (position 6, TEAHHK-----); assay: potentiometry; details: 25 C, 0.1 M KNO3
[17] = molecular target: Glu2 (position 2, ----TEAHHK-); assay: potentiometry; details: 25 C; 0.1 M KNO3; free peptide (no metal)
[18] = Zn(II)-bound peptide (ZnH-1L to ZnH-2L step), peptide:Zn ratios 1:1 and 2:1

TESHHK
pKa [1]: 6.41 (2) and 6.88 (5)
pKa [2]: 6.35 (I) and 6.12 (4)
pKa [3]: 6.78
pKa [4]: 5.90
pKa [5, 18]: 10.30
pKa ([5]; free peptide (no metal)): 10.28
pKa [6]: 3.85

TASHHK
pKa [7]: 6.30 (2) and 6.61 (4)
pKa [8]: 6.29 (2) and 6.06 (3)
pKa [9]: 6.62
pKa [10]: 10.48
pKa [11]: 5.74

TEAHHK
pKa [12]: 6.42 (2) and 6.15 (3)
pKa [13]: 6.48 (2) and 6.72 (2)
pKa [14]: 6.00
pKa [15]: 6.68
pKa [16, 18]: 10.34
pKa ([16]; free peptide (no metal)): 10.25
pKa [17]: 4.10
